Measured values taken from article PMC8017925, “Structural basis for differential recognition of phosphohistidine-containing peptides by 1-pHis and 3-pHis monoclonal antibodies” (Proceedings of the National Academy of Sciences of the …, 2021).

How the values were obtained:
[1] = target: T1, NM23 peptide, 1-pHis form; assay: BLI; biotinylated pHis peptides (20 nM) on streptavidin biosensors, Fab in solution at varying concentrations; 50 mM Hepes pH 8.0, 150 mM NaCl, 0.05% Tween-20, 0.2% BSA; Octet RED96e; global fit to a 1:1 Langmuir model
T1 sequence (peptide, biotin on the N-terminus; C-terminal amide; 1-phosphohistidine at position 5): RNIIHGSDS

[2] = target: T2, ACLY peptide, 1-pHis form; assay: as above
T2 sequence (peptide, biotin on the N-terminus; C-terminal amide; 1-phosphohistidine at position 5): VQFGHAGAC

[3] = target: T3, Common-His peptide, 1-pHis form; assay: as above
T3 sequence (peptide, biotin on the N-terminus; C-terminal amide; 1-phosphohistidine at position 5): GEQLHDLNA

[4] = substrate: SCS peptide, 1-pHis form; assay: as above
[5] = target: ACLYana-1-pTza peptide (AGAG-1-pTza-AGAG); assay: BLI; N-terminally biotinylated peptides (20 nM) on streptavidin biosensors, varying concentrations of Fab in solution; 50 mM Hepes pH 8.0, 150 mM NaCl, 0.05% Tween-20, 0.2% BSA; association 120 s, dissociation 200 s; global fit to a 1:1 Langmuir model; Octet RED96e; in triplicate
[6] = target: T4, ACLYana-1-pHis peptide (AGAG-1-pHis-AGAG); assay: as above
T4 sequence (peptide, 1-phosphohistidine at position 5; biotin on the N-terminus): AGAGHAGAG

[7] = system: ACLYana-1-pHis peptide (AGAG-1-pHis-AGAG); assay: BLI binding kinetics of 1-pHis Fabs with affinity-purified pHis peptide; conditions: for ka / kd / Kd: BLI, 1:1 Langmuir global fit, triplicate; for ka / kd: affinity-purified ACLYana-1-pHis peptide; for Kd: ACLYana phosphorylated with phosphoramidate (8 h, 23 °C), 1-pHis isomer affinity-purified on 1-pHis IgG column, immobilized on streptavidin biosensors, Hepes pH 8.0; for affinity to 1-pHis peptides, times weaker than the 1-pTza peptides: ratio of BLI KD, 1-pHis versus 1-pTza peptide
Experimental: (§1) Biolayer interferometry (BLI) studies were performed to determine the relative affinity of pHis Fabs to in situ phosphorylated His peptides versus the phosphomimetic substrates. The N-terminally biotinylated peptides were immobilized on streptavidin biosensors and the rate of association (ka) and dissociation (kd) were determined by varying the pHis Fab concentration. Equilibrium dissociation constants (KD) were determined by fitting the experimental data to a 1:1 Langmuir binding model. ACLYana-1-pTza and ACLYana-3-pTza peptides were used to determine affinity to 1-pHis and 3-pHis Fabs, respectively (Fig. 3 A–E and Table 1). […] The two isomers were separated from each other by passing the reaction through affinity columns containing 1-pHis mAbs using SC1-1 or SC50-3 IgGs or 3-pHis mAbs using SC39-4, SC44-8, and SC56-2 IgGs. The eluates thus contained either predominantly 1-pHis or 3-pHis peptides. These peptides were used to determine the affinity to their respective isomer class of pHis Fabs (Fig. 3 F–J, Table 1, and SI Appendix, Fig. S5). […] This experimental observation is well supported by the higher number of hydrogen bonds that support the SC44-8:3-pTza interaction compared to other pHis Fabs (SI Appendix, Table S5). […] There are at least three reasons for the lower affinity of the mAbs for pHis peptides compared to pTza peptides: The continuous hydrolysis of phosphate from the pHis peptides during the course of the experiment (SI Appendix, Fig. S6), a reduction in the number of hydrogen bond interactions due to one less nitrogen in the imidazole ring compared to triazolyl ring (Fig. 4 and SI Appendix, Fig. S8), and inherently different electronic properties of the imidazole and triazolyl rings in His and Tza, respectively ([20]).
(§2) Fig. 3. Binding kinetics of pHis Fabs with cognate pTza and pHis peptides. BLI studies of immobilized peptides (ACLYana-1/3-pTza and phosphorylated ACLYana) with varying concentrations of the pHis Fabs were carried out in triplicate on an Octet Red96e instrument (FortéBio). SC1-1 (A) and SC50-3 (B) pHis Fab interaction with their ACLYana-1-pTza peptides. SC39-4 (C), SC44-8 (D), and SC56-2 (E) pHis Fabs interactions with ACLYana-3-pTza peptides. SC1-1 (F), SC50-3 (G), SC39-4 (H), SC44-8 (I), and SC56-2 (J) pHis Fabs interactions with their affinity-purified ACLYana-pHis peptides are represented, Right. The experimental data are represented in the black dashed lines and the nonlinear least-squares fitting was represented in the red continuous lines. The χ^2 for the goodness of fit is under 1.0 for the all the plots.
(§3) The binding kinetics of pHis Fabs with the peptides (pTza and pHis) were evaluated with an Octet RED96e (FortéBio). Streptavidin-coated biosensors (FortéBio) were presoaked in buffer containing 50 mM Hepes pH 8.0, 150 mM NaCl, 0.05% Tween-20, and 0.2% BSA for 15 min. The biotinylated pTza peptides or pHis peptides (20 nM) with and without phosphoramidate treatment were coated onto these streptavidin biosensors and analyzed for their binding to varying concentrations of the pHis Fabs with an association time of 120 s and dissociation time of 200 s. The entire set of experiments was repeated three times. The data were analyzed using the Octet software (FortéBio) and the rates of association and dissociation were obtained by global fitting data to the 1:1 Langmuir interaction model.
Supplementary methods and materials
Peptide Synthesis. Peptides used for the crystallization were synthesized at Sanofi as described in Fuhs et al. (1). Peptides used in the DSF and BLI experiments were synthesized by the Salk Peptide Synthesis Core. These peptides were N-terminally biotinylated and C-terminally amidated. They were synthesized using standard Fmoc chemistry on a Gyros Protein Technologies Tribute peptide synthesizer with UV monitoring. Following the deprotection, peptides were analyzed by mass spectrometry and analytical HPLC by the Proteomics Core at […]
Salk. […]

[8] = target: ACLYana-1-pTza peptide (AGAG-1-pTza-AGAG); assay: BLI binding kinetics of 1-pHis Fabs with cognate pTza peptide; conditions: triplicate; for Kd: BLI Octet RED96e, N-terminally biotinylated peptide (20 nM) on streptavidin biosensors, varying Fab concentration, 50 mM Hepes pH 8.0, 150 mM NaCl, 0.05% Tween-20, 0.2% BSA, association 120 s, dissociation 200 s, global fit 1:1 Langmuir; for ka / kd: BLI, immobilized biotinylated ACLYana-1-pTza, 1:1 Langmuir global fit
Experimental: as §1, §2, §3

B1: SC50-3 Fab (Fab, V domains shown)
VH: QSVKESEGGLFKPTDTLTLTCTASGFSLNGYGVIWVRQAPGKGLEWIGSAGAYGRIYYPNWARSRATITRNTNLNTVSLKMTSLTAADTATYFCARRTNVSTSVGFDSWGPGTLVTVSS
VL: DMTQTPSSKSVPVGDTVTINCQASESVYSNNRLSWFQQKPGQPPKLLIYLVSTLASGVPSRFKGSGSGTQFTLTISDVVCDDAATYYCVGYKSSTTDGLAFGGGTEVVVK
B1 was tested, and the Kd [1] was 362 nM, the koff [1] was 0.0176 s⁻¹ and the kon [1] was 48500 M⁻¹ s⁻¹. For the same molecule, the Kd [2] was 194 nM, the koff [2] was 0.0247 s⁻¹ and the kon [2] was 127000 M⁻¹ s⁻¹. For the same molecule, the Kd [3] was 336 nM, the koff [3] was 0.0243 s⁻¹ and the kon [3] was 72200 M⁻¹ s⁻¹. It also gave a Kd [4] of 411 nM, a koff [4] of 0.0147 s⁻¹ and a kon [4] of 35800 M⁻¹ s⁻¹.

B2: SC50-3 Fab (SC50-3 heavy chain with SC1-1 light chain) (Fab, V domains shown)
VH: QSVKESEGGLFKPTDTLTLTCTASGFSLNGYGVIWVRQAPGKGLEWIGSAGAYGRIYYPNWARSRATITRNTNLNTVSLKMTSLTAADTATYFCARRTNVSTSVGFDSWGPGTLVTVSS
VL: DMTQTPSSKSVPVGDTVTINCQASESVYSNNRLSWFQQKPGQPPKLLIYLVSTLASGVPSRFKGSGSGTQFTLTISDVVCDDAATYYCVGYKSSTTDGLAFGGGTEVVVK
B2 was tested, and the Kd [5] was 16 nM, the koff [5] was 0.00136 s⁻¹ and the kon [5] was 85100 M⁻¹ s⁻¹. The Kd [6] was 28.3 nM, the koff [6] was 0.00494 s⁻¹ and the kon [6] was 175000 M⁻¹ s⁻¹.

B3: SC1-1: Fab of rabbit monoclonal antibody that recognizes 1-pHis (antibody, V domains shown)
VH: QSVEESEGGLFKPTDTLTLTCTASGFSLSGHGVIWVRQAPGKGLEWIGSAGAYGRIYYASWAKSRSTITRNTNLNTVTLKMTSLTAADTATYFCARRSDVGTSVGFDSWGPGTLVTISS
VL: DMTQTPSSKSVPVGDTVTINCQASESVYSNNRLSWFQQKPGQPPKLLIYLVSTLASGVPSRFKGSGSGTQFTLTISDVVCDDAATYYCVGYKSSTTDGLAFGGGTEVVVK
B3 gave a ka [7] of 97300 ± 551 M⁻¹ s⁻¹, a kd [7] of 0.00925 ± 1.33e-05 s⁻¹ and a Kd [7] of 95.1 nM. For the same molecule, the “affinity to 1-pHis peptides, times weaker than the 1-pTza peptides” value [7] was “two to four times weaker”, the Kd [8] was 24.8 nM and the ka [8] was 81300 ± 347 M⁻¹ s⁻¹. For the same molecule, the kd [8] was 0.00199 ± 3.19e-06 s⁻¹.

B4: SC50-3: Fab of rabbit 1-pHis monoclonal antibody, expressed with SC50-3 heavy chain and SC1-1 light chain (antibody, V domains shown)
VH: QSVKESEGGLFKPTDTLTLTCTASGFSLNGYGVIWVRQAPGKGLEWIGSAGAYGRIYYPNWARSRATITRNTNLNTVSLKMTSLTAADTATYFCARRTNVSTSVGFDSWGPGTLVTVSS
VL: DMTQTPSSKSVPVGDTVTINCQASESVYSNNRLSWFQQKPGQPPKLLIYLVSTLASGVPSRFKGSGSGTQFTLTISDVVCDDAATYYCVGYKSSTTDGLAFGGGTEVVVK
For B4, the ka [7] was 175000 ± 1010 M⁻¹ s⁻¹, the kd [7] was 0.00494 ± 1.06e-05 s⁻¹ and the Kd [7] was 28.3 nM. For the same molecule, the “affinity to 1-pHis peptides, times weaker than the 1-pTza peptides” value [7] was “two to four times weaker”, the Kd [8] was 16 nM and the ka [8] was 85100 ± 303 M⁻¹ s⁻¹. The kd [8] was 0.00136 ± 3.19e-06 s⁻¹.
